{
  "source": "paper PMC11856660",
  "about": "(PLOS Pathogens, 2025)",
  "target": "HCoV-229E nsp15 protein, H250A mutant (recombinant, hexameric) (human coronavirus 229E (HCoV-229E))",
  "experiment": "[…] (25 mM HEPES pH 8, 300 mM NaCl, 10% glycerol, 1 mM TCEP); […]; 20 °C; […]",
  "data": [
    {"substance": "HCoV-229E nsp15 protein, H250A mutant (recombinant, hexameric) (enzyme)", "values": [
      {"measurement": "percent hexameric", "value": "> 98", "unit": "%"},
      {"measurement": "stoichiometry N", "value": 6}
    ]}
  ]
}
